Assay results: US20250277044A1 (published 2025)

B1: Urelumab (a patent sequence from WO2004010947) (antibody, V domains shown)
VH: QVQLQQWGAGLLKPSETLSLTCAVYGGSFSGYYWSWIRQSPEKGLEWIGEINHGGYVTYNPSLESRVTISVDTSKNQFSLKLSSVTAADTAVYYCARDYGPGNYDWYFDLWGRGTLVTVSS
VL: EIVLTQSPATLSLSPGERATLSCRASQSVSSYLAWYQQKPGQAPRLLIYDASNRATGIPARFSGSGSGTDFTLTISSLEPEDFAVYYCQQRSNWPPALTFGGGTKVEIK
B2: humanized anti-human 4-1BB monoclonal antibody BH3145b (antibody, V domains shown)
VH: QVQLVQSGAEVKKPGSSVKVSCKASGYTFTSYWINWVRQAPGQGLEWMGNIYPSDSYTNYNQKFKDRVTITADKSTSTAYMELSSLRSEDTAVYYCARLYYGSSPFDYWGQGTTVTVSS
VL: DIQMTQSPSSLSASVGDRVTITCRASQDISNYLNWYQQKPGKVPKLLIYHTSRLHSGVPSRFSGSGSGTDFTLTISSLQPEDVATYYCQQGHTLPRTFGGGTKVEIKR

Columns and labels:
[1] = biological target: T1, recombinant human 4-1BB (Sino Biological Inc., catalog number 10041-H08H) (human, UniProt Q07011 24-186); assay: ELISA; FIG. 6
[2] = biological target: T1, recombinant human 4-1BB (Sino …); assay: ELISA; FIG. 2
[3] = biological target: T1, recombinant human 4-1BB (Sino …); assay: ELISA; FIG. 6; remark: listed apart in the source
[4] = biological target: T1, recombinant human 4-1BB (Sino …); assay: competition ELISA; blocking of 4-1BB/4-1BBL

| Binder | EC50 [1] [nM] | EC50 [2] [nM] | EC50 [3] [nM] | EC50 [4] [nM] |
| --- | --- | --- | --- | --- |
| B1 | 0.087 | 0.087 | – | – |
| B2 | – | – | 0.086 | 14 |
